Assays:
[1] = target: EGFP-Pro(K10R/Y12A) (Streptomyces mobaraensis); assay: BLI
[2] = target: EGFP-Pro(K10R) (Streptomyces mobaraensis); assay: BLI

B1: ΔproMTG lacking the C-terminal His-tag (recombinant mature microbial transglutaminase) (enzyme)
chain: DSDDRVTPPAEPLDRMPDPYRPSYGRAETVVNNYIRKWQQVYSHRDGRKQQMTEEQREWLSYGCVGVTWVNSGQYPTNRLAFASFDEDRFKNELKNGRPRSGETRAEFEGRVAKESFDEEKGFQRAREVASVMNRALENAHDESAYLDNLKKELANGNDALRNEDARSPFYSALRNTPSFKERNGGNHDPSRMKAVIYSKHFWSGQDRSSSADKRKYGDPDAFRPAPGTGLVDMSRDRNIPRSPTSPGEGFVNFDYGWFGAQTEADADKTVWTHGNHYHAPNGSLGAMHVYESKFRNWSEGYSDFDRGAYVITFIPKSWNTAPDKVKQGWP
[1]
  Kd: 7.85 µM
[2]
  Kd: 0.019 µM

— publication doi:10.1101/2023.10.09.561484
